# This sample holds only a part of the variants without activity.
# B1: TPR 5TU (parent)
# chain: GGAUCUUCUCGAUCUAACAAAAAAGACAAAUCUGCCACAAAGCUUGAGAGCAUCUUCGGAUGCAGAGGCGGCAGCCUUCGGUGGCGCGAUAGCGCCAACGUUCUCAACUAUGACACGCAAAACGCGUGCUCCGUUGAAUGGAGUUUAUCAUG
# Variants of: B1
# Assay: polymerase ribozyme fitness, log enrichment relative to wild type (log ratio); higher = more active; in vitro selection for triplet polymerase activity
# Summary of the method: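 PCR was used to build mutant libraries for each subunit of a heterodimeric triplet polymerase ribozyme, which were then transcribed. A single in vitro selection round, in triplicate, used a frozen incubation at −7 °C and recovered extended constructs by gel excision, streptavidin beads and RT-PCR. Fitness is the logarithm of genotype enrichment relative to wild-type enrichment, averaged over replicates with inverse-variance weights. The logarithm is base 2, and after Illumina sequencing only genotypes with ≥10 input reads and ≥1 read per output were kept.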
row,Variant,polymerase ribozyme fitness (log ratio)
1,C8A U56A C79U G84C G112A C131U U146A,≤ -4.2
2,U7C G46C U56A U77C G81A G86U G100A G133U,≤ -4.2
3,U7A A22G C72A A122U C131A,≤ -4.2
4,U7C C18U U61C C69A C93A C114U,≤ -4.2
5,C8G G34U A73C C85G U148G,≤ -4.2
6,U7C C57G A98G,-3.3
7,C8A A39G G84U A106U C149G,≤ -4.2
8,C8G C43U G88C C93A U146G,≤ -4.2
9,U7C A12G C96U,-2.17
10,U7A A29C C85U C87U G143C A150G,≤ -4.2
11,U7G A21C C32A A49C U53C C69U A142C,≤ -4.2
12,C8A A28U C79U C93U C105U,≤ -4.2
13,C8A A64C C72A C95U C116G A121C A138C,≤ -4.2
14,C8A C14G U53C G58A G62C C85G,≤ -4.2
15,U7A A26U C27U A41U U55G C93U,≤ -4.2
16,U7A A119G A120C,-3.25
17,U7C A23U C87A A89G C116U C125U,≤ -4.2
18,U7G A20U U53A G88U C96A A113U C114U A122U U139A A142U,≤ -4.2
19,U7C G11C G59A G71C C76U G84U A138C,≤ -4.2
20,C8A A16G A29U A47U G71U C93A A106G G133U C149U,≤ -4.2
21,C8G C14A A39C G74U G143U,≤ -4.2
22,C8G A12G G42C U82A C95U C108U G136A G143A A150U,≤ -4.2
23,C8A G11A C63U G83C U130G G152C,≤ -4.2
24,C8G G48C G80U G84U C125U G141U,≤ -4.2

row,Variant,polymerase ribozyme fitness (log ratio)
1,U7C A17G A23U A52C C76G C85U C93A G128U G152C,≤ -4.2
2,U7G A23C A28U C38G A121G,≤ -4.2
3,C8A U55A A66C G67U U77A C99U C108U G133C G136A,≤ -4.2
4,C8G A24G U33G G59A G71A G74A U144C,≤ -4.2
5,U7G C35A A40G U77C A150U,≤ -4.2
6,C8A A49G G74A G86U G141U U148G,≤ -4.2
7,C8A A26U A49U G83U U101G C118U A138C,≤ -4.2
8,U7C A20C A89G C96A U111C C118U,≤ -4.2
9,C8G C116G,-3.15
10,U7G G42C U61A C96U G112C G124C G126C G136A,≤ -4.2
11,C8G G11U U31A U90G A137C A150U,-4.16
12,C8G C35U C85G G88U U134A,≤ -4.2
13,C8A A12G A17G U56A A97U A147C,≤ -4.2
14,U7G A64G C87A C105A U144G,≤ -4.2
15,U7C A12C A24C C96U A120C,≤ -4.2
16,U7C G86U,-3.7
17,C8G A16U C79G G141A,≤ -4.2
18,C8A A12U U61A C79U G84U C85G C118U A119G C129A G143C U148G,≤ -4.2
19,C8A A16U A17U A26U G80C C87U U139G U151A,≤ -4.2
20,U7C A23G U82G G83A U146G A150G G152C,≤ -4.2
21,U7A G71A C96G,≤ -4.2
22,U7G A23C A24U C54G,≤ -4.2
23,U7C C27U C38U C54G A64G C75U C85A C96U C105G C114U,≤ -4.2
24,U7A G94C U111C U135A A138U,-3.87

row,Variant,polymerase ribozyme fitness (log ratio)
1,C8G G94A C103U G128C U134A,≤ -4.2
2,U7G G50C G58U C63U C76A G92A C149G,≤ -4.2
3,C8A C27U U56C U111C A138G,≤ -4.2
4,U7A U55A,-3.25
5,C8G C54U G59C G81U C96A U144C,≤ -4.2
6,C8A A22G U56A C57U C85G,≤ -4.2
7,U7A C8U A73G G81A G83A C96A A119U G124C,≤ -4.2
8,U7A A26G C75G C93A,-4.13
9,U7A C85U,-2.9
10,U7G U15A G59C G124C G136A,-3.25
11,U7C G92C,-2.73
12,U7C A24U C96U A107G C125G U144C U151C,-4.07
13,U7G A47U U55A C57A C63U C95U,-3.6
14,U7A C54A C72A,≤ -4.2
15,U7C C38U C95A A119U,-2.61
16,U7G G50C U56G G94C,≤ -4.2
17,U7G U53A A147G,≤ -4.2
18,C8G A22C A24U C69U A73U C93U,≤ -4.2
19,U7G U53A U56G G84U U148C,≤ -4.2
20,C8G A29C G34C U78G G86U A97C C149U,≤ -4.2
21,U7A A26C U31A G34C G70U U78G G117A C118U A119C,≤ -4.2
22,U7G G42A U44A G68C A91U G117A U135A,≤ -4.2
23,U7A U53A U56A,≤ -4.2
24,U6G U78A G84U A91C C108A A121C,≤ -4.2

row,Variant,polymerase ribozyme fitness (log ratio)
1,U7C C27U A49C A52G C79A C87G C93G C96A A97U C99U C108U A120U,-4.18
2,C8G G84U,≤ -4.2
3,U7A C14G U45A G50A C57A G71C A110U G112U C125G C132U,≤ -4.2
4,U7C G48C C85U,-3.27
5,C8G A29G A60U U77A C93A C123U,≤ -4.2
6,C8G A24U A29G C54G C57U G94A A98G U135G,≤ -4.2
7,C8G C79A A91U A107C G124C U144C,≤ -4.2
8,U7A A73G C87G C131A,≤ -4.2
9,U7A A26G U31C G50U A73C G86A U104G,≤ -4.2
10,U7C U55A C63U G88U A107U U145A,≤ -4.2
11,C8A C27A C57G G92A,≤ -4.2
12,U7C C35U,-2.29
13,U7A A28U G46C G50A C95G C103G C129A U144C,≤ -4.2
14,C8A G58C,-4.1
15,C8G A17G G25A C54G G71C C87U U90A C96U C132U,≤ -4.2
16,C8G G71A G74A C79U C87A C116A,≤ -4.2
17,C8G A24G C54U G68A G71A A91U C95A,≤ -4.2
18,U7A C14G C32U A106G U148C,≤ -4.2
19,U7A G94A,-3.07
20,U7A A28G A40U A49C G50C C87A U144G,≤ -4.2
21,U7G A30G C32A A39U A60G C96U G126U G140U,-3.86
22,C8G G50C U55C G100A A115G U127C,≤ -4.2
23,C8G A20G U44G G48U G84U G128U U144A,≤ -4.2
24,U7G G11U A16G A24C U31G G34U A98G G117C,≤ -4.2

row,Variant,polymerase ribozyme fitness (log ratio)
1,U7G C63A C96G,≤ -4.2
2,U7A A28U A40U U55A C57A C76U U78G C96G C123G,≤ -4.2
3,U7G G11A C18A A37G G50A C85U G112U,≤ -4.2
4,U7A A17U A19C C38U G58U G86A G92C,≤ -4.2
5,U7G G74A C103A,≤ -4.2
6,C8G C35U A40U C95U C149A,≤ -4.2
7,U7A G25A G50U G84U,≤ -4.2
8,U7G C85A,-3.43
9,U7G C85U,-2.79
10,U7G C63G C76G C93G A97U C99G A106U,≤ -4.2
11,U7A C35A C87A C93A,≤ -4.2
12,U7C C38A C51G G83U G84A,≤ -4.2
13,U7G C75A G84A G94U A106U A120C,≤ -4.2
14,C8A U13G A21G A28G G68U G81A C118G G143U,≤ -4.2
15,C8G G143C,-4.08
16,C8A C32G A40U A52U A73U A91U,≤ -4.2
17,C8A A19G C57G G88A U146G,≤ -4.2
18,U7C C10U U55A G62A G65C U78G C96A,≤ -4.2
19,U7A U33G C79A C116U U144C,≤ -4.2
20,C8G C27G C36G A39C C85A,≤ -4.2
21,C8G G83A A97U U127A,≤ -4.2
22,C8A U56A A60U C93A U109G A113U U139G U145C A147G,≤ -4.2
23,U7C C8A C32U A91U A121G U134C,≤ -4.2
24,C8A U13G G50C C76G C118A,≤ -4.2

row,Variant,polymerase ribozyme fitness (log ratio)
1,C8A A22U C79G G81U C95U A107U C108U,≤ -4.2
2,U7A C18U A91U A97U U102C U144G,≤ -4.2
3,C8A A12G,-3.98
4,U7G A30C C32G C51U U144A,≤ -4.2
5,U7G U13A A17U A20C G50A A122C G141U U151G,≤ -4.2
6,C8G A12U G25A A28U A39C G58C G94U U144G,≤ -4.2
7,U7C C76U G84A A119U U145G,-3.32
8,U7C C85U U145A,-2.42
9,U7A U111G,-4.19
10,C8A G88A,≤ -4.2
11,C8G C14A A30C C69U C76G A98U U144G,≤ -4.2
12,U7G C32U C54G C96U,≤ -4.2
13,U7C C18U U31A G81A G84U,-3.99
14,U7C C18G G86A U148A,-4.2
15,U7G A19C A30U G71C G84A C96G C118G,≤ -4.2
16,C8G C10A A30C U56A C57G C87U U102G G143C,≤ -4.2
17,U7C G50U G140U,≤ -4.2
18,U7A C79G G94C C114A C118G,≤ -4.2
19,U7C A19C C57G C85U C96U U148A,≤ -4.2
20,C8A A17U A23U A26G C27G U90G G92A A115C,≤ -4.2
21,C8A U44A C51A A66G C85U U130G,≤ -4.2
22,U7C U56A A91U A106U C132U,-3.92
23,C8A A12U C35G G92U C103G,-3.99
24,C8A A73G C93A U146C,-4.17

row,Variant,polymerase ribozyme fitness (log ratio)
1,U7A A60G C85U U144C,-3.61
2,C8A G84A,-3.28
3,U7C A20U C96A C103U U109C G152U,-3.42
4,U7A A20C C93G C116G U135G,≤ -4.2
5,U7C U9G A17U A26G G84A C116A,-3.98
6,C8A G92C,-3.68
7,C8G A20C G67C G68C A113U,≤ -4.2
8,U7C A73G U82A G136C,≤ -4.2
9,C8A C93A,≤ -4.2
10,C8A C93U,-3.42
11,C8G A30G C35U G65U G94U U135C U144G,≤ -4.2
12,C8G A52C U55C G65A G83U C105U G143U,≤ -4.2
13,U7G U15A G58U G70C A91G,≤ -4.2
14,U7G G25C A60G C93U C123U,≤ -4.2
15,U7A C10A C14U C32G C36A U53G U55G U61A G67C U82G C87G C96U C103G,≤ -4.2
16,C8A C14U A37G C54U C85U,≤ -4.2
17,C8G G92C,-3.1
18,U7A A19C G92C C105A A115U C116U A137U,≤ -4.2
19,C8A G50U,-3.79
20,U7G G11C A29C U82G C95U U109G,≤ -4.2
21,U7G C18U A19U A28U C85A C87U A97U,≤ -4.2
22,C8G U13C A16G A52G G83A U101G G126A,≤ -4.2
23,C8A C27U U44G A49C C72G C79A G92A G143U,≤ -4.2
